Results from paper PMC9388682, “Structural basis for cannabinoid-induced potentiation of alpha1-glycine receptors in lipid nanodiscs” (Nature Communications, 2022).

Molecular target: the molecule itself
Assay: cryo-EM structure; purified GlyR in asolectin nanodiscs (MSP1E3D1), buffer A (200 mM NaCl, 20 mM HEPES pH 8.0); with or without 32 μM THC and 0, 0.1 or 1 mM glycine; Titan Krios 300 keV, RELION; homopentamer

B1: zebrafish glycine receptor alpha1 (GlyRα1), full-length, homopentamer in asolectin nanodiscs (receptor, UniProt O93430 25-444, looked up)
chain: ARKAASPMPPSEFLDKLMGKVSGYDARIRPNFKGPPVNVTCNIFINSFGSIAETTMDYRVNIFLRQQWNDPRLAYSEYPDDSLDLDPSMLDSIWKPDLFFANEKGANFHEVTTDNKLLRISKNGNVLYSIRITLVLACPMDLKNFPMDVQTCIMQLESFGYTMNDLIFEWDEKGAVQVADGLTLPQFILKEEKDLRYCTKHYNTGKFTCIEARFHLERQMGYYLIQMYIPSLLIVILSWVSFWINMDAAPARVGLGITTVLTMTTQSSGSRASLPKVSYVKAIDIWMAVCLLFVFSALLEYAAVNFIARQHKELLRFQRRRRHLKEDEAGDGRFSFAAYGMGPACLQAKDGMAIKGNNNNAPTSTNPPEKTVEEMRKLFISRAKRIDTVSRVAFPLVFLIFNIFYWITYKIIRSEDIHKQ
modifications: N-glycans at Asn62
notes: glycine receptor subunit alpha-1, zebrafish, codon-optimized full-length gene (NCBI NP_571477); residues of the models numbered as in UniProt O93430; Phe341-Lys394 (M3-M4 loop, ICD) not modelled in the structures; also called zebrafish homomeric GlyRα1; glycine α1 receptor
  stoichiometry N: 5
